{
  "source": "patent US20170081379A1",
  "target": "recombinant HDM2 17-125 (human) (UniProt Q00987)",
  "sequence (Q00987 17-125 limits assumed)": "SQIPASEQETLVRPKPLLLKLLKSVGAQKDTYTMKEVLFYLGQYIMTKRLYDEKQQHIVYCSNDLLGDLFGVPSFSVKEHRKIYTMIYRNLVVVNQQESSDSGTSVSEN",
  "assay": "fluorescence polarization, FITC-labeled peptide with HDM2 17-125",
  "data": [
    {"substance": "FITC-SAH-p53-8F19A (peptide)", "values": [
      {"measurement": "Kd", "value": "> 4", "unit": "µM"}
    ]}
  ]
}
